Where no end group is shown, it is not given here. [ ]: non-standard residue; d: D form. Lys(Me3) = C[N+](C)(C)CCCC[C@H](N)C(=O)O
T1: ADD domain of ATRX (ATRXADD) (UniProt P46100 159-296)
T1 construct: ATRX, N-terminal ADD (ATRX-DNMT3-DNMT3L) domain; plasmid pGEX-GP-2-ATRX ADD from Addgene; that it comes from the GST fusion and not from the His-tagged one is surmised; also called ATRX-DNMT3-DNMT3L domain; source: E. coli BL21, purified (spin column, on-column thrombin cleavage)
T1 sequence (looked up): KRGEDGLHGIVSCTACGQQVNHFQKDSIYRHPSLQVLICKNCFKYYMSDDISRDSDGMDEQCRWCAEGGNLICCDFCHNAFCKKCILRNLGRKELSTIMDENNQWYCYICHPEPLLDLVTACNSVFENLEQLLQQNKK

B1: H3_(1-10) peptide (peptide)
peptide: ARTKQTARKS
notes: histone H3 tail; source: bought: GenScript
B2: H3_(1-11)K4me3K9me3 peptide (peptide)
peptide: ART[Lys(Me3)]QTAR[Lys(Me3)]ST
notes: as for B1
B3: H3_(1-11)K9me3 peptide (peptide)
peptide: ARTKQTARKST
modifications: trimethyl-lysine at 9, printed K(me3)
notes: as for B1
B4: H3_(1-11) A1V peptide (peptide)
peptide: VRTKQTAR[Lys(Me3)]ST
notes: histone H3 tail with A1 replaced; source: bought: GenScript
B5: H3_(1-11) A1L peptide (peptide)
peptide: LRTKQTAR[Lys(Me3)]ST
notes: as for B4
B6: H3_(1-16) peptide (peptide)
peptide: ARTKQTARKSTGGKAY
notes: as for B1

molecular target: T1, ADD domain of ATRX (ATRXADD); assay: fluorescence polarisation; competition: ATRXADD (5 μM) and H3_(1-15)K9me3-FAM (0.75 μM) incubated 15 minutes at room temperature, then unlabeled peptide at varying concentrations; PBS; 384-well plate; conditions: both partners purified

Compared with B1, B2 is higher in IC50: 94.8 ± 4.6 µM for the first, no less than 100 µM for the second. The first is the more potent here.

Going from B3 to B4, the IC50 falls from 7.6 ± 1.4 µM to 4.3 ± 0.8 µM (1.8-fold).

First: B5
Second: B6
The IC50 of the first is 17-fold lower: 5.05 ± 0.7 µM for the first, 85.8 ± 19.3 µM for the second. The first is the more potent here.

Source: publication PMC7181051, “Probing the Protein-Protein Interaction between the ATRXADD Domain and the Histone H3 Tail” (Molecules, 2020)
